How the values were obtained:
[1] = biological target: T1, DLL4 Egf1 (amino acid: 1-251) construct (human, UniProt Q9NR61 26-251); test: Western blot, non-reducing
T1 construct: also called EGF1 construct; not shown: myc tag (and his tag) added by the PCR primers
Method: (§1) Media from transfected CHO cells was collected after 7 days. To enrich for the DLL4 protein, 1 ml aliquots of each sample were batch bound with 50 μl of Talon Resin for 30 minutes. To confirm protein production media samples were tested with mouse anti-c-myc mAb (Genescript; Catalog # A00704). Samples were washed and then boiled with loading dye in the presence or absence of DTT. A gel was run on each of the 2 samples for each condition: with DTT and without DTT. […] For detection goat anti-mouse HRP, goat anti-kappa HRP, and goat anti-lambda HRP were used, respectively.

[2] = biological target: T2, DLL4 DSL (amino acid: 1-217) construct (human, UniProt Q9NR61 26-217); test: Western blot, non-reducing
T2 construct: also called DSL construct; not shown: myc tag (and his tag) added by the PCR primers
Method: as §1

[3] = biological target: T3, DLL4 Egf2 (amino acid: 1-282) construct (human, UniProt Q9NR61 26-282); test: Western blot, non-reducing
T3 construct: also called EGF2 construct; not shown: myc tag (and his tag) added by the PCR primers
Method: as §1

[4] = biological target: T4, recombinant human DLL4 (Cat# 1506-D4/CF, R&D Systems) (human, UniProt Q9NR61 27-529); test: ELISA, DLL4 coated, Fab 12.5 nM
T4 construct: Bought protein; also called hDLL4; rHuman DLL4
Method: (§2) The plate was blocked by adding 1% BSA in Tris-buffered Saline Tween (TBST) and incubating for 1 hour at room temperature followed by washing 2 times with 150 μl TBST. A Fab antibody was serially diluted in 1% BSA in PBS. A 50 μl aliquot of each serial dilution was added, in triplicate, to each well and the plate was incubated for 1 hour at room temperature followed by washing 2 times with TBST. 50 μl of either goat anti-human kappa HRP conjugated secondary antibody (Cat # A7164-1 mL, Sigma-Aldrich) or goat anti-human lambda HRP conjugated secondary antibody (Cat # L1645-1 ml, Sigma-Aldrich), diluted 1:1000 in 1% BSA in PBS, was added to each well and the plate was incubated for 30 minutes at room temperature followed by washing 3 times with 200 μl TBST. Finally, 50 μl TMB one-component reagent (Cat # TMBW-1000-01, BioFax) was added and allowed to develop for 2 minutes at room temperature. The reaction was immediately halted by the addition of 50 μl 0.5M H₂SO₄ and the absorbance at 450 nm was measured using an ELISA plate reader.

[5] = biological target: T4, recombinant human DLL4 (Cat# …); test: ELISA, DLL4 coated, Fab 75 nM
[6] = biological target: T4, recombinant human DLL4 (Cat# …); test: SPR (ProteOn), hDLL4 amine-coupled on chip; 2-site binding, 89% of it by the footnote
Method: (§3) In this example, the binding affinities of selected anti-DLL4 Fabs to recombinant human DLL4 (hDLL4, Cat# 1506-D4/CF, R&D Systems) were analyzed using Surface Plasmon Resonance (SPR) (Biosensor Tools, Salt Lake City, Utah). The Fabs analyzed include germline-derived antibodies and germline-modified DLL4 antibodies. Recombinant hDLL4 was immobilized on a SPR chip using amine coupling at three different surface densities. The Fabs were serially diluted 3-fold, with an initial concentration of 1 μM. Binding studies were run on a ProteOn system using a GLM sensor chip in 10 mM HEPES, pH 7.4, 150 mM NaCl, 0.01% Tween-20, and 0.1 mg/ml BSA at 25° C. The response data from each surface was globally fit to determine the binding constants.

[7] = biological target: T4, recombinant human DLL4 (Cat# …); test: ELISA, DLL4 coated, Fab 100 nM
Method: as §2

[8] = biological target: T4, recombinant human DLL4 (Cat# …); test: SPR (ProteOn), hDLL4 amine-coupled on chip; 2-site binding, 10% of it by the footnote
Method: as §3

[9] = biological target: T4, recombinant human DLL4 (Cat# …); test: ELISA, DLL4 coated, Fab 50 nM
Method: as §2

[10] = biological target: T4, recombinant human DLL4 (Cat# …); test: ELISA, DLL4 coated, Fab 100 nM; remark: listed apart in the source
[11] = biological target: T4, recombinant human DLL4 (Cat# …); test: ELISA, DLL4 coated, Fab 3.125 nM
Method: as §2

[12] = biological target: T4, recombinant human DLL4 (Cat# …); test: ELISA, DLL4 coated, Fab 25 nM
In short: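 Block 1% BSA/TBST 1 h RT; Fab serial dilutions (1% BSA/PBS, triplicate) 1 h RT; HRP anti-human kappa or lambda 1:1000, 30 min RT; TMB 2 min; 0.5M H₂SO₄ stop; OD450.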

[13] = biological target: T4, recombinant human DLL4 (Cat# …); test: SPR (ProteOn), hDLL4 amine-coupled on chip
In short: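 Binding constants came from global fits of response data per surface. Three densities of amine-immobilised DLL4 were used, and Fabs started at 1 μM with 3-fold dilutions. Running buffer was HEPES 10 mM pH 7.4, NaCl 150 mM, Tween-20 0.01%, BSA 0.1 mg/ml at 25° C on a GLM chip.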

[14] = biological target: T4, recombinant human DLL4 (Cat# …); test: ELISA, DLL4 coated, Fab 50 nM; remark: listed apart in the source
Method: as §2

[15] = biological target: T4, recombinant human DLL4 (Cat# …); test: ELISA, DLL4 coated, Fab 6.25 nM
Method: as §2

Binder	binding result [1]	binding result [2]	binding result [3]	ELISA absorbance at 450 nm [4] [A450]	ELISA absorbance at 450 nm [5] [A450]	Kd [6] [nM]	ELISA absorbance at 450 nm [7] [A450]	Kd [8] [nM]	ELISA absorbance at 450 nm [9] [A450]	ELISA absorbance at 450 nm [10] [A450]	ELISA absorbance at 450 nm [11] [A450]	ELISA absorbance at 450 nm [12] [A450]	koff [13] [s⁻¹]	kon [13] [M⁻¹ s⁻¹]	ELISA absorbance at 450 nm [14] [A450]	ELISA absorbance at 450 nm [15] [A450]
Fab VH5-51_IGHD5-18*01>3_IGHJ4*01 H:KT TRV & V3-4_IGLJ1*01 L:LP S52G (Fab, V domains shown, Fab, lambda light chain; also called Fab H:KT TRV & L:LP S52G) VH: EVQLVQSGAEVKKPGESLKISCKTSGYRFTSYWIVWVRQMPGKGLEWMGIIYPGDSDTRYSPSFQGQVTISADKSISTAYLQWSSLKASDTAMYYCARRKYSYTYDYFDYWGQGTLVTVSS VL: QTVVTQEPSFSVSPGGTVTLTCGLSSGSVSTSYYPSWYQQTPGQAPRTLIYGTNTRSSGVPDRFSGSILGNKAALTITGAQADDESDYYCLLYMGPGISYVFGTGTKVTVL	no binding (tested: 20 nM Fab)	no binding (tested: 20 nM Fab)	no binding (tested: 20 nM Fab)													
Fab VH1-46_IGHD6-6*01_IGHJ1*01 S102A/S103P/S104F/H111F & L6_IGKJ1*01 S28N/S30D/S31H (Fab, V domains shown, Fab made in E. coli: VH on CH1 with His6 and Flag tags (Plasmid A), VL on kappa CL (Plasmid C); also called H: APFF & L: NDH) VH: QVQLVQSGAEVKKPGASVKVSCKASGYTFTSYYMHWVRQAPGQGLEWMGIINPSGGSTSYAQKFQGRVTMTRDTSTSTVYMELSSLRSEDTAVYYCAREEYAPFSAEYFQFWGQGTLVTVSS VL: EIVLTQSPATLSLSPGERATLSCRASQNVDHYLAWYQQKPGQAPRLLIYDASNRATGIPARFSGSGSGTDFTLTISSLEPEDFAVYYCQQRSNWPPWTFGQGTKVEIKR				0.192	0.268	155	0.686	14	0.202	0.259	0.096	0.31	0.0689	444000	0.507	0.125

— patent publication US20110318339A1 (FABRUS, published 2011)
